Laboratory results: paper PMC9404779, “Oxidative Implications of Substituting a Conserved Cysteine Residue in Sugar Beet Phytoglobin BvPgb 1.2” (Antioxidants, 2022)
Structures can show the parent of a compound that is named as a salt. Values belong to the compound of their own block, whether it stands above or below them.

What was measured:
BvPgb1.2 = target: T1, BvPgb1.2 (Beta vulgaris, UniProt V5QR23); assay: peroxidase assay, absorbance of ABTS radical cation at […] nm; type: biochemical; settings: 10 mM H2O2, 5 mM ABTS, 50 mM Tris-HCl pH 8.5; protein incubated at 22 or 37 °C
T1 construct: gene Bv9_224250_aayd.t2; recombinant from E. coli BL21(DE3), pET-DEST42

[1] = target: Wildtype (WT) BvPgb1.2, Class 1 phytoglobin from sugar beet (Beta vulgaris) (Beta vulgaris (sugar beet)); assay: SEC; analytical SEC, Superdex 75 10/300 GL, 50 mM NaP with 150 mM NaCl pH 7.0, 100 µL of 1 mg/mL protein; MW from retention volume on a calibration curve; dimer of monomers
[2] = target: BvPgb1.2 Cys86Ala mutant (Beta vulgaris (sugar beet)); assay: as above

T1 sequence (V5QR23 1-171): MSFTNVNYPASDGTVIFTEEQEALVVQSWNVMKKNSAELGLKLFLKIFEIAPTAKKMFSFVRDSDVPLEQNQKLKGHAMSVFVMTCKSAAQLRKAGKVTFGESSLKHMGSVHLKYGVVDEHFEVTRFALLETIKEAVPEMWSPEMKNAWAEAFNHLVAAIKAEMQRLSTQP

Compound: CCn1c(=NN=c2sc3cc(S(=O)(=O)O)ccc3n2CC)sc2cc(S(=O)(=O)O)ccc21 [2,2′-azino-di-(3-ethylbenzthiazolinesulfonic acid) diammonium salt]
peroxidase assay, absorbance of ABTS radical cation at 415 nm (BvPgb1.2): The detectable radical formation of ABTS was used in this study to quantify this

degree of dimerization [1]: > 99%
stoichiometry N [1]: 2
Compound: Wildtype (WT) BvPgb1.2, Class 1 phytoglobin from sugar beet (Beta vulgaris) (natural protein)

degree of dimerization [2]: > 99%
stoichiometry N [2]: 2
Compound: BvPgb1.2 Cys86Ala mutant (natural protein)
